For eight sequences, protein production results are on record in a protein production outcome set (Wang et al. 2014).

The nature of the data set: label from the status in PepcDB records.
Take “MVNIFWFSLAVIIYSYFIYPFILLIFSAVKQAISDTRYLWKKSQRRVVDKDNLPPVSIIIAAYNEESCIKARVENLLSLDYPQDKLTILIGSDGSQDKTAEILTSFDAVNLKVHIFEKNRGKMSVLNDLVEQVNSDYIVFSDANTHFNKNTIEYLVRHFNHDNIGAVCGELHLVDVDSGDNKDNIYWRYEQVLKFHEARLNALQGANGAIYAIRKELFIPLPANTIVDDFQIAMNVAKQGFRLIYDPEAIAIEEIAPNLQAEEGRRVRIGLGNYQALFTMAWALNPLLGWRFIAYISHKVCRWFVPHLMLITLISNLLLISNPLYQLLFIGQILFYSVAFYGIKKQQKRQKVSSIIGIIAFFVSMNIALMRGFIRYFSSNVQGTWERTTR”: the protein production entry is listed as “failed”.

As to “MVNLMKNEKEINGKKSHFFSLSESRFMRFLGGNDLIYALIALVLLGIVIFIFDKISYVFQPFIIVFNTIAAPIIVSLVLFYLFNPIVNMMERYRIPRLLGITIIYVAIIGIITLIVNLLIPIIGSQIESFIKNTPNYLHKITRSLDKLNNNTILSGYMGQVNEWLESAQKKIPSMVSDYSDGFGSKLATFAEAVANIGIVIGTTPFVLFFMLKDGHKFKDYTTKIMPPKFRKDFHDLLEKMSVQVGSYIQGQIIVSFCIGLLLFIGYSIIGLKYALVLASIAAVTSVVPYLGPTIAISPAIVIAIITSPLMLLKLAVVWTLVQFFEGHFISPNVMGKTLKIHPLTIIFILLCAGNLMGIVGVIIGIPLYAVLKVLVSHIFMLFKRRYNRYYGNDAGEYTITEEEKGIKQ”, the protein production entry was “failed”.

Turning to “MVNPTISDDLFAMIAKKVADKSWLDLKPLIRSGTRGRDIVYRPDVLKDANIYSLCRVPDDFQVGGGHNPTGPQGEGRNRPFFKRCLLANNPTAVYNEAIRVLIHETDINGALKLMQRHAPVRADATIVCAIIFICAGYEWN”, the protein production entry is reported as “not failed”.

Regarding “MVNQEKTLDVGFTHADFAALLDRYDYHFNPGDIVAGTVFSIEPKGALIDIGAKTAAYIPIQEMSINRIESPEEVLQPNETREFFILADENEEGQLTLSIRRIEYMRAWERVRQLQAEDATVRSQVFATNRGGALVRIEGLRGFIPGSHISTRVNKEELVGEELPLKFLEVDEERNRLVLSHRRALVERKMNKLEVGEVVVGTVRGIKPYGAFIDIGGVSGLLHISEISHDHIDTPHSVFNVNDQVKVMIIDLDAERGRISLSTKQLEPEPGDMVKNPQLVYEKAEEMAERYRQQLLQQQQQAAGETPEEGMEDIPEATEDDSPAPILQEALEHHHHHH”, the protein production result is reported as “failed”.

As for “MVPAAMRGLNLALVDIGAGTSDIAITGQGTISGYAMVPSAGDEITEALASALILDFNTAERVKRQLSTRENLTFTDVVGQRHTLAAAELMEIIKPAVTELARQVATQIILLNGKPPQAVLLIGGGSLTPGLAAALAGQLEISPERVALEHHHHHH”, the protein production entry is “failed”.

“MVPKFYKLSNGFKIPSIALGTYDIPRSQTAEIVYEGVKCGYRHFDTAVLYGNEKEVGDGIIKWLNEDPGNHKREEIFYTTKLWNSQNGYKRAKAAIRQCLNEVSGLQYIDLLLIHSPLEGSKLRLETWRAMQEAVDEGLVKSIGVSNYGKKHIDELLNWPELKHKPVVNQIEISPWIMRQELADYCKSKGLVVEAFAPLCHGYKMTNPDLLKVCKEVDRNPGQVLIRWSLQHGYLPLPKTKTVKRLEGNLAAYNFELSDEQMKFLDHPDAYEPTDWECTDAP”: the protein production entry is given as “failed”.

With “MVQELLKQLQNGEAKFADVLAYIESRFEHQPTAFKNGQQQNAATENQGSAKVFSLAQIEGLNQTETLSLFAEHYAAVLNTPEGTDHQNIRQFMQHGWDGVTFEGEALQAK”, the protein production result is “failed”.

With “MVQIAGTPVPLSAKSRGPNALSSLLAALFLLLSQPASGAEAKQCIDNAELDAADKAFNSLHYAKADSLYQSMLQTGDQSSTLYWKLARLNISIAEAIDPSERKKRIPFYNKAVEYARKSVQLDENNASAHTWLAAALALKADKIGAKEKLNRAAEIKRELDKALALNPNDDVAWSMLGSYNFEASKIGWFSRFMGSTFVGKMPKGSREEAEKDFKKAISLNPRVIRHYHELALLYLEEDRKQEALNTLRIAETRPVLMKSDVRRLKEIKKLIAKLSKEIEEK”, the protein production result is on record as “failed”.
